According to the DeepSol protein solubility set:

experiment: soluble on expression in E. coli; label from the status in PepcDB or PDB records

| Sequence | soluble on expression in E. coli |
| --- | --- |
| MRVQPVTNCEKAVILEALKIGKRFDFRSLEEFRDVKLVVGAEVGTAICTIGNTKVMAAVSAEIAEPSSMRPHKGVINIDVDLSPMANYANEHDRLGSKGMELIRLLELIIRDSRCIDVEALCIRAGKEIWKIRVDVRILDEDGSLLDCACLAAITALQHFRRPNVTLEPHHTLIYSEYEKAPVPLNIYHMPICTTIGLLDKGQIVVIDPTDKETACLDGSIVVACNKRREVCALHQSTNLILSTKQIERCVKLAMARAEALTAVVSDVIKQDQIERSAFKRPDGFAITTPSLILTAGTTASRQIRAPVIKTEPESFTQRSLYQPSVILNENPLSVGSVKQEDVDEETLLAEQLTTIQNSVGQVEVTEKQTVAVSSRKREVEEVNDLLDGLDDDDEEEEVQTMTLGSETVLNDVPMEEAPDAEDSLVNAKKKKKK | not soluble |
| MARIRVVQGDITEFQGDAIVNAANNYLKLGAGVAGAILRKGGPSIQEECDRIGKIRVGEAAVTGAGNLPVRYVIHAAVLGDEPASLETVRKATKSALEKAVELGLKTVAFPLLGTGVGGLPVEAVARVMLEEIKKAPDTLEVTLYGYREEDAEAIRRAL | soluble |
| MGSDKIHHHHHHMQQHPVVSREEWLVKRRALLAREKEAIHQRDAITAERLALPWVKVDTRYVFDTASGKKTLADLFDGRSQLMIYHFMLGPGWAAGCPGCSLVADHLGGTLAHLNHHDVTLIAVSRAPLPEIEAYRQRMGWQFPWASSFGTTFNHDFRVSFTPDELASGAVDYNYTSTQSAQANDELPGLSAFYKDAAGNVYHTYSTYARGLEDLIGTFLILDRAPKGRNESGPMEWVRRHDEYGDAPKANACYEG | not soluble |
| SSSEQKSQHCKPEEGVEAQEEALGLVGAQAPTTEEQEAAVSSSSPLVPGTLEEVPAAESAGPPQSPQGASALPTTISFTCWRQPNEGSSSQEEEGPSTSPDAESLFREALSNKVDELAHFLLRKYRAKELVTKAEMLERVIKNYKRCFPVIFGKASESLKMIFGIDVKEVDPTSNTYTLVTCLGLSYDGLLGNNQIFPKTGLLIIVLGTIAMEGDSASEEEIWEELGVMGVYDGREHTVYGEPRKLLTQDWVQENYLEYRQVPGSNPARYEFLWGPRALAETSYVKVLEHVVRVNARVRIAYPSLREAALLEEEEGV | soluble |
| MITDEHIELFLAQAHRYGDAKLMLCSSGNLSWRIGEEALISGTGSWVPTLAKEKVSICNIASGTPTNGVKPSMESTFHLGVLRERPDVNVVLHFQSEYATAISCMKNKPTNFNVTAEIPCHVGSEIPVIPYYRPGSPELAKAVVEAMLKHNSVLLTNHGQVVCGKDFDQVYERATFFEMACRIIVQSGGDYSVLTPEEIEDLEIYVLGKKTK | soluble |
| MSTARFADPDQIRAGFSRAMSQMYQHEVPLYGTLMELVSEVNAQVMSRDSQVLNSLRQTGEIQRLDMERHGAIRVGTAQELATLARLFAVMGMQPVGYYDLTAAGVPVHSTAFRAVHEQALQVSPFRVFTSLLRLELIESDSLREFASRVLAKRTIFTPGALALIEKHEADGGLSEPDAAEFIQQALETFRWHHTATVSLDEYRQLNAQHRLIADVVAFRGPHINHLTPRTLDIDAVQSGMPGKGITPKAVVEGPPPRQCPILLRQTSFKALEEPISFIGQGGSQSGSHSARFGEIEQRGAALTPKGRELYDRLLNEARDALGEFPNEANAVRYAGLLEKAFQAFPDSHDEMRAQGLAYFRYFPTDTGVAVRVSGTLEQLIEAGHVRFEPLAYEDFLPVSAAGIFQSNLGDNAQAHYAANSNRQDFERALGRGTLDELALYADTQRRSLEDCAEVLGLNESLEHHHHHH | not soluble |
| MSLSQQVPAASFTLLDGQKLSTQDLKGKVYLVNFWATSCATCVKEMPNMIQTYNKFKGQGLEFVAVAMSYDPPMYVMNYSQTRQLPFKVAMDADGAAARAFGDVQLTPTTFLVDRNGRILRRYVGEPEWASFETLLRDTLAKQAEGLITITTDPNSSSVDKLAAALEHHHHHH | soluble |
| MSLGSQGSGLEQSSFQWSPSGRRTGSLYCRVGIGFHLQIYPDGKVNGSHEANMLSVLEIFAVSQGIVGIRGVFSNKFLAMSKKGKLHASAKFTDDCKFRERFQENSYNTYASAIHRTEKTGREWYVALNKRGKAKRGCSPRVKPQHISTHFLPRFKQSEQPELSFTVTVPEKEGHHHHHH | not soluble |
| MSWNCLLPIFVGFFVLFYEGQCQPARWTQQPGGQNPQPGASFPPNMNPVTNGPGSWTQKPGGYNNGPGSGSFKSTKPPRGLVYYQPKNYPYKPGKGGKYMHADPILPNANERLSAQSDQYTVSDGITGDWSKIVANSKGFYVLHPVQTKSEEDIFDPYTIGQVIGYLYEVQEFGGKKPPSGKYTIELMGKKIPDHLKKKRSLFGSPDRTRRATLVFKKKEQVKSTL | not soluble |
| MSLNGSSIIEFEDMTWSQQVEDSKKPVVVMFYSPACPYCKAMEPYFEEYAKEYGSSAVFGRINIATNPWTAEKYGVQGTPTFKFFCHGRPVWEQVGQIYPSILKNAVRDMLQHGEECIRKSTPVGQDITGYVEGHHHHHH | soluble |
| MSLDRVEVLGVEFVEFTADQTEAEALGSLLGAMGFRAVASHREKAVTLWRQGCDHRGINVVINTEQKGFAHSSYLVHGASAYAIGLKVPDASAAVERARALGAEIFLPESGEGEGAMAAIRGMGGGLIYFVDEIDDVWSREFVAPGDDRQPAATLVAIDHVAQSMKEEQLPSWLLFYTSILDADKLAQVDIVDPAGLVRSQVVENASGTLRLTLNGADNHRTLAGHFIAESFGSGVQHVAFRTDDIFEAAEHMRRSGFRALAISRNYYDDIEVRFALEPGFVDRLRDENILYDRDEDGEYFQIYGPTFGEGFFFEIVERRSGYRGYGAANAPFRIAAQKRCLRPAGMPAEGSSRVDLQVCRPKKGIITITTDPNSSSVDKLAAALEHHHHHH | soluble |
| RSEMHEECSPDFTAQFHLAAEHTAHIFQHLPETEPDDFQTALDTLRGELDTLRTHSSGTQSHILLQQLQLIARQLEPYYRAYRQIPHRQPQNAA | not soluble |
| GIDPFTKANSEACRDGLRAVMECRNVTHLLQQELTEAQKGFQDVEAQAATCNHTVMALMASLDAEKAQGQKKVEELEGEITTLNHKLQDASAEVERLRRENQVLSVRIADKK | soluble |
| MGNLICTKNGGEPEIMVAAHMDEIGFAVKYIDDKGFIRIAPIGGWFSQIALAQRVVLYGKKKVYGVIGCKPPHLMKDEERKKGIEIKDMFVDIGASSKEEVLEMGINVGTPVALDREIVELANGRITGKAFDNRVGVAVMIEAVRRAKADITIHAVATVQEEVGLKGARTSAFAIEPTAAIAVDTCVAADFPGSESAHMDVKLGKGAAITVIDASGRGLIASPKVLRWLTETAEKYGIPYQLEVAEGGTTDATAIHLTKAGIPAGVVSVPARYIHSPVEVVDLKDVESAVEIVARAIENAKNYF | soluble |
| MGSDKIHHHHHHMNTYAQESKLRLKTKIGADGRCVIEDNFFTPPFKLMAPFYPKDDLAEIMLLAVSPGMMRGDAQDVQLNIGPNCKLRITSQSFEKIHNTEDGFASRDMHIVVGENAFLDFAPFPLIPFENAHFKGNTTISLRSSSQLLYSEIIVAGRVARNELFKFNRLHTKISILQDEKPIYYDNTILDPKTTDLNNMCMFDGYTHYLNLVLVNCPIELSGVRECIEESEGVDGAVSETASSHLCVKALAKGSEPLLHLREKIARLVTQTTTQKV | not soluble |
| MRKLWVAFFASLVLAMPSWVSARSHAGGGADVHLPVGHMWKHEGLDEQKWMEMVQKYTPEQEEEWKKVLDERNALRQQLNDENVKQAIKEKCKKMKKEREAALDRLIDQLVDKKITKEQFKKEWKQLHKKKQWMTKEEKQQLHLLHEQTRQAMENNDQEAMKKLLPQWLDHMKKKNERLAKWLQEVKQG | not soluble |
| MGSDKIHHHHHHMLIEKELSELTVGHYVVKIIQQEGCFSLTAAGHIKSKAVINHLKSKNVHRVLIDDSKTLLSSSHEKSATVDAPSIVKNKELKHAKAIFDQSKSIQKKLFHDALSGSCLDLSPVVEVTNKSIDAIFNSPDSLACMLNIREKDEYLLEHSVAVSVYITIFSRYLDLERHIIEQLSIGAFLHDIGKIKIPDKILNKPGKLTVDEFTIMKTHANHSIAIIKETPGISALSLEVAALHHEKLDGSGYPFQVDGEDISQYGRMIAICDIFDALTATRVYKEGFTHGKAFSILRELAKQGQLDASLVDHFIKCVGVFPVGSLVQLKSNKLALVQERNDKDPINPQVHSFYSVKLNQFLNKQEIDLSGSEDSIVKSVRAEEFDLDMKQIVDMLLMEG | not soluble |
| SAGAAPTTAFGQAVIGPPGSGKTTYCLGMSEFLRALGRRVAVVNLDPANEGLPYECAVDVGELVGLGDVMDALRLGPNGGLLYCMEYLEANLDWLRAKLDPLRGHYFLFDCPGQVELCTHHGALRSIFSQMAQWDLRLTAVHLVDSHYCTDPAKFISVLCTSLATMLHVELPHINLLSKMDLIEHYGKLAFNLDYYTEVLDLSYLLDHLASDPFFRHYRQLNEKLVRLIEDYSLVSFIPLNIQDKESIQRVLQAVDKANGYCFGAQEQRSLEAMMSAAMGADFHFSSTLGIQEKYLAPSNQSVEQEAMQL | not soluble |
| MGSDKIHHHHHHMMKYIFRTFSCGSGDCIFLILKSGDYTLNLMIDCGKYTEEIDEYVRNSLKNKIDYLIVTHIDNDHINGLIKMLTQNPDLIIEHIIYNCYQRVINNEQPWTEQMKANVDRLYDQLPIVIDMLSQNVNEEKALTLAECILRKEEWRRAWQREYITDESPAIQLANNMGRIIFLSPSQVALDRLDVKYRKLFWQQLYKQKTEDYDGEETIYEALMRIAQLEEGEETKDENVNDDTINEQILKRYASRPLSKMDDNNIASIAFIWEYQGHRILLMGDADPEQVSNAIEKVYKDETKPVIFDLIKVSHHGSAHSTSCGLMDVIDSERFFFTGGGKERPSLQTLGRIIIRPLPNGIAYRDIRYNRPNEILNKLANLSVDEKGSLHIRVNHNENGYEVSC | not soluble |
| MRSKGFLHLDTEIVVPFFDVDMMNIVWHGHYVKYLEVARCALLDHIGHNYMQMLESGYGWPVIDLQLRYVRSAVFGQKLNVRASLVEWENRLKINYLITDADTGERLTRASTVQVAVDRDSHEMQLASPQVFIDAVKRALPLEHHHHHH | soluble |
| MGSDKIHHHHHHMTQPFKDAIGICKAIMRNGYDAYVVNTQLQSEILDQDCLEIDIACEPGYVELGKIFPGLEMSGEDGVVGTLREGGTLFRFYHTDTDDSSHPEATLARVTPTMLRRLEAKGTLPASLACPFIPSSAETYQGFDDFSKGDIRFEGVPDETLRRSYVLGVRAMRIAANFDLPIEPNSWMAIVRSASRILDYVPVTEIMDEWRKVEAENMYKFVQLMFDSMLLHGLIPELAALSRIRHLRTPEAGEETVLDHTIECMRRYPEELPFDWLGTVATMFHDVGKLYAAEYYNGKWTFYQHHRIGAKVTRKILRRLHFLPEDVDLICHLVRNHMRFHFMLTDKGIRRFKALDEYPRLIEMARADIKARDGNYTHFNHNMKYLERAETPEQMLEPLLNGNEIMEFTGLKPGPYVGVIRDALLKAQVTGEVTSMEEAIEYVKTYSERAPR | not soluble |
| MGSDKIHHHHHHMFFEGVEQLIEEILKLRKQGLSFRKIAQALNTTVGKVHYRYKKHEELQHQKGQAKPAAKGEWQLPGSYPVTEITLLPQGPTTLYAFWDTSEQTRGLVSYQTDKDWEQLEKRLRLYDVTSLLFDGRRANRYVDIHLPEMTNNWLIEHVEPNCTYLIDLGVITPSGAFLPVVRSTPIETPRQRNDQYNFRKEDVLDWQYGLSEEPKWLEHFSTYSYYEKTK | not soluble |
